What is called Km is the concentration of substrate that gives half-maximal velocity.

Non-standard residues stand in square brackets, D forms with d. QSY‑7 = quencher dye attached to Cys via maleimide; Rhodamine green = fluorophore at the N-terminus; βAla = NCCC(=O)O

We go through four molecules from US6991916B2, “Compounds for the treatment of sexual dysfunction” (Pfizer Inc., priority 2000, dated 2006).

One series has as its target T1, human SEP (Homo sapiens, UniProt Q495T6).
T1 construct: with the full length cDNA cloned into the pCMV6-XL4 vector; made in house; host or cells: CHO cells, transient transfection; dialysed culture medium
T1 sequence (Q495T6 75-779 limits assumed): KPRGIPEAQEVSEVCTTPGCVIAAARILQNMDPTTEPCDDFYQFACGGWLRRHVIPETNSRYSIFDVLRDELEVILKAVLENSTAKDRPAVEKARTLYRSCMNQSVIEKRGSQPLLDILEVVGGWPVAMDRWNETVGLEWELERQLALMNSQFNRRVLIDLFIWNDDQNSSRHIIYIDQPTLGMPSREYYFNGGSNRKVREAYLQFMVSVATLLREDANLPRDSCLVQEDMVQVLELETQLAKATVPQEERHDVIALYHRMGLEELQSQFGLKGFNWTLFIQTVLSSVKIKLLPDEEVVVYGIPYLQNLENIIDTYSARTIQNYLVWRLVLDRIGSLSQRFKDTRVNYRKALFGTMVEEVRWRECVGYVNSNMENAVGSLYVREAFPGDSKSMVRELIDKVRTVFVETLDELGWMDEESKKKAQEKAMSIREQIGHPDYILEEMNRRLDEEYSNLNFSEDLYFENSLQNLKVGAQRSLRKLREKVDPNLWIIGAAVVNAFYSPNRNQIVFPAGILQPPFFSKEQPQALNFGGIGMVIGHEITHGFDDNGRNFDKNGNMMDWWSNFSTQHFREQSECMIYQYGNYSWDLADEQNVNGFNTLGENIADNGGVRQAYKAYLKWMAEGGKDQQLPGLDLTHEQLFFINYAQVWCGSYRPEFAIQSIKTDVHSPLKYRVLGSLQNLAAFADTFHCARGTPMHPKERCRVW
Nature of the series: Sensitivity of human SEP to inhibitors. It is filed as biochemical. The method, then:
The enzymatic (proteolytic) activity of human SEP protein can be measured in an assay involving, for example, mixing a sample of the human SEP enzyme with a substrate peptide in a buffer solution (for example 50 mM HEPES; pH 7.4), incubating the mixture for a period of time (such as 1-3 hours) enough for human SEP to act to cleave a measurable portion of the peptide substrate to a product at a temperature suitable for SEP activity (typically 30-37° C.).
The effect of candidate human SEP inhibitor compounds or control test compounds such as phosphoramidon and thiorphan that may alter the activity of human SEP can be measured in this type of assay by including them in the initial mixture at a range of suitable test concentrations, typically 0.1 nM to 50 µM.
To determine the IC50 of SEP inhibitors (SEPi; for example, phosphoramidon), multiple SEP assays are performed as described above with a range of test concentrations of inhibitor included in the 50 μl of DMSO solution (made by appropriate dilution of a 10 mM 100% DMSO stock of inhibitor with 4% DMSO/50 mM HEPES pH7.4.). Using a suitable standard graph fitting computer program, a sigmoidal dose response curve is fitted to a plot of log inhibitor concentration versus MaxV (or % inhibition or % activity). The IC50 is calculated as the inhibitor concentration causing 50% maximal inhibition. […]

The target of a further series is T2, mouse SEP (Mus musculus, UniProt Q9JLI3).
T2 sequence (Q9JLI3 1-765): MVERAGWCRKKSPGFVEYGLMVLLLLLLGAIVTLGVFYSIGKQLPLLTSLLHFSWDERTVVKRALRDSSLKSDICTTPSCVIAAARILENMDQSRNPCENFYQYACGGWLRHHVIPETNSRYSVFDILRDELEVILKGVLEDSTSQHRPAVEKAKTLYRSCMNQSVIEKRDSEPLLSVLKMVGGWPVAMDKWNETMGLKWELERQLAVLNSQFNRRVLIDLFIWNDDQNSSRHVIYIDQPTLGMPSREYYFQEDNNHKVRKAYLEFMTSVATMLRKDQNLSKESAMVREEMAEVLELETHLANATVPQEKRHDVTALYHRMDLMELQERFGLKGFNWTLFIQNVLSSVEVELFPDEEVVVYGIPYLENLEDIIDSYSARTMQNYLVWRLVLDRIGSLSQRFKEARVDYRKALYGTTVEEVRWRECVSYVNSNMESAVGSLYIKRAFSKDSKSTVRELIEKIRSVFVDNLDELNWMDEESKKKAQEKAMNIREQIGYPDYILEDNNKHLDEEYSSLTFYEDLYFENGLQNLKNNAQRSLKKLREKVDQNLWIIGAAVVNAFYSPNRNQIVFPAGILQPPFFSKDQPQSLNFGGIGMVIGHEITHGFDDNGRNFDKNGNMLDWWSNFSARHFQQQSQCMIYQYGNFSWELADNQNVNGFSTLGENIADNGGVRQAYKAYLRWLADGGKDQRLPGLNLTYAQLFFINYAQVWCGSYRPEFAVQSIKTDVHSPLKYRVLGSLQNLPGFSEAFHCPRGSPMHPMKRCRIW
The note with it: cited from earlier work.

For a further series, the target named is T3, NEP enzyme (Homo sapiens, UniProt P08473).
T3 construct: made in house; host or cells: Pichia pastoris
Nature of the series: NEP FRET assay (384 well, substrate CP4). As to conditions: steady state kinetics of NEP with the peptide substrate. It is filed as biochemical.

The target in series [1] is T4, Rhodamine green-Gly-Gly-dPhe-Leu-Arg-Arg-Val-Cys(QSY-7)-betaAla-NH2.
T4 chain: GGFLRRVCA

T3 sequence (P08473 whole entry): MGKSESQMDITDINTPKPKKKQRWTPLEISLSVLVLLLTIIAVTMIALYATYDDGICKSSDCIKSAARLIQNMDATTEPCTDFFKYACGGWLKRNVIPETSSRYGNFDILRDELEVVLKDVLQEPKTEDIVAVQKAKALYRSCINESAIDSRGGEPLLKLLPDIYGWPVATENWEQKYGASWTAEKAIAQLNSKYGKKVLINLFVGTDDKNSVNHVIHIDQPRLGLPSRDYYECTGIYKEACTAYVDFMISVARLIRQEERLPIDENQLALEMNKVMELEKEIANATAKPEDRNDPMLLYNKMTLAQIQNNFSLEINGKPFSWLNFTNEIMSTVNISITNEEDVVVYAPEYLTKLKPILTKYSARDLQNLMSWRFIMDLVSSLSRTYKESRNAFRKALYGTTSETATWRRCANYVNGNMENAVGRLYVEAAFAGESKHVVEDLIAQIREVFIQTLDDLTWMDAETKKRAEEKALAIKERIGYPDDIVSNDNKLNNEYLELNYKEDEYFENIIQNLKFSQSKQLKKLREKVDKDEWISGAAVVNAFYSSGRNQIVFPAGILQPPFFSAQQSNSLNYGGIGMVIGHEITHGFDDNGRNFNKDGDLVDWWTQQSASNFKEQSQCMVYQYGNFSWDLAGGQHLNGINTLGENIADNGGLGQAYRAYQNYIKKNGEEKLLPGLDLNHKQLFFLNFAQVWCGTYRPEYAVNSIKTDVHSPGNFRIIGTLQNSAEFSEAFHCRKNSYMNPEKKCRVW

For `CC(C)C[C@H](NP(=O)(O)O[C@@H]1O[C@@H](C)[C@H](O)[C@@H](O)[C@H]1O)C(=O)N[C@@H](Cc1c[nH]c2ccccc12)C(=O)O` [phosphoramidon], the “sensitivity of enzyme to inhibitor” value at human SEP and on mouse SEP was “sensitive” in each case.

For the molecule `O=C(O)CNC(=O)C(CS)Cc1ccccc1` (stereo not drawn) [thiorphan], the “sensitivity of enzyme to inhibitor” value at human SEP and on mouse SEP was “sensitive” in each case.

In the series with NEP enzyme, “Rhodamine green-Gly-Gly-dPhe-Leu-Arg-Arg-Val-Cys(QSY™-7)-βAla-NH2 ({Rhodamine green}-GG[dF]LRRVC(QSY‑7)[βAla]-NH2) [CP4]” yielded a Kcat of 0.083 s⁻¹. For the same molecule, the Km in the series with NEP enzyme (recombinant human enzyme, 50 mM Hepes pH 8, 25° C.) was found to be 8 µM.

B1: Recombinant human NEP (neutral endopeptidase) enzyme (protein)
chain: YDDGICKSSDCIKSAARLIQNMDATTEPCTDFFKYACGGWLKRNVIPETSSRYGNFDILRDELEVVLKDVLQEPKTEDIVAVQKAKALYRSCINESAIDSRGGEPLLKLLPDIYGWPVATENWEQKYGASWTAEKAIAQLNSKYGKKVLINLFVGTDDKNSVNHVIHIDQPRLGLPSRDYYECTGIYKEACTAYVDFMISVARLIRQEERLPIDENQLALEMNKVMELEKEIANATAKPEDRNDPMLLYNKMTLAQIQNNFSLEINGKPFSWLNFTNEIMSTVNISITNEEDVVVYAPEYLTKLKPILTKYSARDLQNLMSWRFIMDLVSSLSRTYKESRNAFRKALYGTTSETATWRRCANYVNGNMENAVGRLYVEAAFAGESKHVVEDLIAQIREVFIQTLDDLTWMDAETKKRAEEKALAIKERIGYPDDIVSNDNKLNNEYLELNYKEDEYFENIIQNLKFSQSKQLKKLREKVDKDEWISGAAVVNAFYSSGRNQIVFPAGILQPPFFSAQQSNSLNYGGIGMVIGHEITHGFDDNGRNFNKDGDLVDWWTQQSASNFKEQSQCMVYQYGNFSWDLAGGQHLNGINTLGENIADNGGLGQAYRAYQNYIKKNGEEKLLPGLDLNHKQLFFLNFAQVWCGTYRPEYAVNSIKTDVHSPGNFRIIGTLQNSAEFSEAFHCRKNSYMNPEKKCRVW
For B1, in series [1], the Kcat was 0.083 s⁻¹, the Kcat/Km was 10,500 M^-1 S^-1 and the Km came out at 8 µM.
